From US20040185525A1, “Process for producing peptide” (priority 2001, published 2004)

Target: T1, GPR8 (Homo sapiens, UniProt P48146)
T1 construct: expressed in transfected cells; host or cells: CHO cells (membrane fraction)
Test: GTPγS binding activity using a cell membrane fraction of CHO cells expressing GPR8
Type: biochemical
Conditions: fraction containing cell membrane of CHO cells expressing GPR8; compared with synthetic hGPR8L; process of Example 6 in WO 01/98494
From the text: FIG. 4 is a graph showing the GTPγS binding activity of hGPR8L (SEQ ID NO: 44) of Example 1 to 3 toward CHO cells expressing GPR8. The horizontal axis indicates the concentration of hGPR8L while the vertical axis indicates the GTPyS binding activity. The solid points (-•-) indicate the results obtained for a synthetic hGPR8L (SEQ ID NO: 44) while the open points (-∘-) indicate the results obtained for hGPR8L (SEQ ID NO: 44) produced by the method of the present invention (tandem repeat technique).
Using a fraction containing cell membrane of CHO cells expressing GPR8, the GTPγS binding activity of the hGPR8L obtained above was determined by the same process as described in Example 6 in WO 01/98494.

T1 sequence (P48146 whole entry): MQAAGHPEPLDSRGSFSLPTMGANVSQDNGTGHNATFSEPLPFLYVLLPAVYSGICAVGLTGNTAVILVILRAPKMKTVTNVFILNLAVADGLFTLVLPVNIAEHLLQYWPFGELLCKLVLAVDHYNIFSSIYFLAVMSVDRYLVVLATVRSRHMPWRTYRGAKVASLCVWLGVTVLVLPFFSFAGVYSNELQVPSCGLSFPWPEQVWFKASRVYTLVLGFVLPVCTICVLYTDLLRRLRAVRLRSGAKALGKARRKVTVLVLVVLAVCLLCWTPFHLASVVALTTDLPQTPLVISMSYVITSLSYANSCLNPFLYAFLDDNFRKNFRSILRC

hGPR8L: 23-residue ligand polypeptide for human GPR8 (SEQ ID NO: 44), produced by the tandem repeat technique in E. coli (WYKHVASPRYHTVGRAAGLLMGL; Human)
GTPγS binding activity: equivalent to that of the artificially synthesized protein
